# Patent publication US20230103584A1 (BLACK BELT THERAPEUTICS, published 2023)
# Changes are numbered by the printed parent chain.
# T1: Human CD38 expressed on cells (Daudi, Raji, Jurkat, human PBMC/T cells, Tregs, HEK-293T transfectants) (human, UniProt P28907 1-300)
# T1 sequence: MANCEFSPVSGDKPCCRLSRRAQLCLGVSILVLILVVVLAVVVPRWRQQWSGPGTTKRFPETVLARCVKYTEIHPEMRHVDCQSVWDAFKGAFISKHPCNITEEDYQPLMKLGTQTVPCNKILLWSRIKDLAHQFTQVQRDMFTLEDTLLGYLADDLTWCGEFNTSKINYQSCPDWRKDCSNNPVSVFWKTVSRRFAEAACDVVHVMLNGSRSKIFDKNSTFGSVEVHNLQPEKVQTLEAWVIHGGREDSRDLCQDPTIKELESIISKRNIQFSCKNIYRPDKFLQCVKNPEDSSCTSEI
# T2: Cynomolgus monkey CD38 expressed on T cells / PBMC (Cynomolgus monkey, UniProt Q5VAN0 1-301)
# T2 construct: whole, on cells; also called cyno T cells; cynomolgus pan T cells
# T2 sequence (looked up): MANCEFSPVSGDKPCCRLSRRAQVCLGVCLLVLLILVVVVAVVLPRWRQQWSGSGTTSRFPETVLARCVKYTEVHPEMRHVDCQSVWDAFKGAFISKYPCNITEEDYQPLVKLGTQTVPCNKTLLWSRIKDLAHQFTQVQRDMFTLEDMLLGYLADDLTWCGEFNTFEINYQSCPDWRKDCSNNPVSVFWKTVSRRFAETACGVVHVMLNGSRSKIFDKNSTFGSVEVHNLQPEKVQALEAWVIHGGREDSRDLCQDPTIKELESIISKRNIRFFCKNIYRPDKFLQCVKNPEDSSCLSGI
# B1: aCD38-b-348 (human IgG1) (antibody, V domains shown)
# VH: QLQLQESGPGLVKPSETLSLTCTVSGGSISSSDYYWGWIRQPPGKGLEWIGSIYYSGSTYYNPSLKSRVTISVDTSKNQFSLKLSSVTAADTAVYYCARGQYSSGWYAYPFDMWGQGTMVTVSS
# VL: EIVLTQSPGTLSLSPGERATLSCRASQSVRSSYLAWYQQKPGQAPRLLIYGASSRATGIPDRFSGSGSGTDFTLTISRLEPEDFAVYYCQQDGNVYTFGGGTKVEIK
# notes: First made as IgG in yeast
# B2: aCD38-b-348-m2 (antibody, IgG1, V domains shown)
# VH: B1 VH
# VL: B1 VL with G93S
# B3: aCD38-b-348-m4 (antibody, IgG1, V domains shown)
# VH: B1 VH
# VL: B1 VL with D92E
# B4: aCD38-b-348-m3 (antibody, IgG1, V domains shown)
# VH: B1 VH
# VL: B1 VL with G93A
# B5: aCD38-b-348-m1 (antibody, IgG1, V domains shown)
# VH: B1 VH
# VL: B1 VL with D92E, G93A
# Experiments:
# [1] = biological target: Recombinant, Histidine-tagged extracellular domain of human CD38 (human) (UniProt P28907); test: ForteBio BLI
# [2] = biological target: T1, Human CD38 expressed on cells (Daudi, …); test: cell-based or functional assay
# [3] = biological target: T1, Human CD38 expressed on cells (Daudi, …); test: cell-based or functional assay; remark: listed apart in the source
# [4] = biological target: T2, Cynomolgus monkey CD38 expressed on T …; test: flow cytometry on cynomolgus cells, gated on CD8-positive cells, secondary antibody staining
# Experimental: (§1) Binding of anti-CD38 Antibodies to CD38-expressing cells The candidate hits are evaluated by analysing the binding to purified cynomolgus T cells. […] Unbound primary antibody was removed by washing followed by staining with a secondary antibody (5 μg/ml) 30 minutes on ice. All samples were stained in triplicates with appropriate CD3, CD4 and CD8 cross-reactive antibodies. Samples were measured by flow cytometry. For data analysis live cells were gated using FSC vs SSC parameters during sample acquisition. Mean fluorescence intensities (MFI) of stained cells were plotted on an XY chart, graphing MFI against the log of the concentration and the data fit to a non-linear regression curve from which the EC50 was calculated.
# [5] = biological target: T2, Cynomolgus monkey CD38 expressed on T …; test: flow cytometry on cynomolgus cells, gated on CD4-positive cells, secondary antibody staining
# Experimental: as §1
# [6] = biological target: T1, Human CD38 expressed on cells (Daudi, …); test: cell-based or functional assay; remark: listed apart in the source
# [7] = biological target: T1, Human CD38 expressed on cells (Daudi, …); test: cell-based or functional assay; remark: listed apart in the source
molecule,measurement,setting,value
"IB4, reference monoclonal agonistic mouse anti-human CD38 antibody",Kd,[1],9 nM
B1,"CDC EC50, 10% complement, target Raji cells",[2],0.3 µg/mL
same,"CDC EC50, 10% complement, target Raji cells (repeat)",[2],0.17 µg/mL
same,ADCC Max. % lysis,[3],44%
same,EC50 (read off the curve),[4],~0.9 µg/mL
same,EC50 (read off the curve),[5],~0.9 µg/mL
same,"ADCC EC50, target Daudi cells (experiment 6)",[6],0.00032 µg/mL
same,"ADCC EC50, target Daudi cells (experiment 7)",[6],0.0008 µg/mL
same,"ADCC EC50, target Daudi cells (experiment 8)",[6],0.00042 µg/mL
same,"CDC EC50, 10% complement, target Daudi cells (experiment 15)",[7],0.17 µg/mL
same,"CDC EC50, 10% complement, target Daudi cells (experiment 16)",[7],0.34 µg/mL
same,"CDC EC50, 10% complement, target Daudi cells (experiment 17)",[7],0.26 µg/mL
B2,ADCC Max. % lysis,[3],44%
B3,ADCC Max. % lysis,[3],38%
B4,ADCC Max. % lysis,[3],39%
B5,ADCC Max. % lysis,[3],38%
